From patent publication US20260274955A1 (JANUX THERAPEUTICS, published 2026)

Target: T1, anti-CD28 scFv (SEQ ID NO: 35)
T1 construct: also called anti-CD28 scFv wt Vh-linker-Vl
Assay: phage binding ELISA, scFv on plate, CD28 as competitor
Description: Clonal phage were harvested as crude supernatants and screened via standard enzyme linked immunosorbent assays (ELISAs). […] Prior to the addition of clonal phage, wells were incubated with blocking buffer and CD28 soluble protein or blocking buffer alone. Without washing or aspirating, clonal phage supernatants were then added to the wells and incubated for a short time. Wells were then washed followed by detection of bound phage using a horse radish peroxidase conjugated anti-M13 antibody.

T1 sequence (scFv, as listed by the source): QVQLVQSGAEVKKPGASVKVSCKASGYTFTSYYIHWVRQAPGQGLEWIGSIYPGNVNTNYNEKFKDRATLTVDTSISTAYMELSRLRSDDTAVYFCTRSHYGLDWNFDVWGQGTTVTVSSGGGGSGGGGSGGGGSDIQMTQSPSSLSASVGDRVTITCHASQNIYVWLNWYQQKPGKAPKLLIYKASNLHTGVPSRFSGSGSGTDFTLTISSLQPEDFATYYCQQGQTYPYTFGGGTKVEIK

B1: Phage-1664 (peptide)
peptide: IHLCHWVPWIKCSH
CD28 scFv signal in presence of CD28: 2.51
